Results from the supplement of paper PMC9170038.

Test system: MS2 coat protein
Assay: apparent KD of MS2 coat protein; higher = weaker reporter binding
Conditions: Eterna round: R107
Summary of the method: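 Designed RNA switches, transcribed on-chip from Illumina sequencing clusters, were titrated with SNAP-549-labelled MS2 coat protein from 0.7 or 1.5 nM to 3 µM in twofold steps. The solution was 100 mM Tris-HCl pH 7.5, 80 mM KCl, 4 mM MgCl2, with constant ligand or without it. Apparent KD is the median over each design's normalised cluster binding-curve fits.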

[1] = input ligand: theophylline 20 uM
[2] = input ligand: theophylline 2 mM
[3] = input ligand: tryptophan 2.4 mM

UAGCGAUAAUCUGAUACCAGACGUGUGCUCUCCUCAGACAUGAGGAUCACCCAUGUAUGCGUCCCUUGGCAGCAGAGUGAGGAGA [Theo B Ex t5]
apparent KD of MS2 coat protein (input ligand: arginine 13.2 mM): 19.6 nM
apparent KD of MS2 coat protein (input ligand: none): 19.6 nM
apparent KD of MS2 coat protein [1]: 26.8 nM
apparent KD of MS2 coat protein [2]: 115 nM
apparent KD of MS2 coat protein [3]: 18.6 nM

UAUAUAGAAGGAAGUCAUAUAGAUGCAGAAGGAGCGUAGGAAACUACAGGUAGGUCGCUGAGGUACAUGAGGAUCACCCAUGUAG [SSArg A #15 Slice of Pi]
apparent KD of MS2 coat protein (input ligand: arginine 13.2 mM): 24.7 nM
apparent KD of MS2 coat protein (input ligand: none): 32.3 nM
apparent KD of MS2 coat protein [1]: 44.7 nM
apparent KD of MS2 coat protein [2]: 24.9 nM
apparent KD of MS2 coat protein [3]: 29.4 nM

UAUAUAUACUCGGCCGCCACUGAGAGAGUCAUGUAAACAUGAGGAUCACCCAUGUAAUAUAUAUACAGGACCGGGAGUAUAUUAA [4.A]
apparent KD of MS2 coat protein (input ligand: arginine 13.2 mM): 19.1 nM
apparent KD of MS2 coat protein [1]: 17.3 nM
apparent KD of MS2 coat protein [2]: 15.8 nM

UAUAUAUAUCACUAACUGUUCUUGAGGUCUCGAGGACCGGUACGGCCGCCACUCGGGCCGCCUCACAUGAGGAUCACCCAUGUCC [XTryp A #3]
apparent KD of MS2 coat protein (input ligand: arginine 13.2 mM): 38.9 nM
apparent KD of MS2 coat protein [1]: 94.8 nM
apparent KD of MS2 coat protein [2]: 89.4 nM

UAUAUAUGGAUGGAUACCAGCAGAGAAAACGUUUAUCCUAACAUGAGGAUCACCCAUGUAUGCCCUUGGCAGCUGUUUAUAUAUA [8.J]
apparent KD of MS2 coat protein (input ligand: arginine 13.2 mM): 21 nM
apparent KD of MS2 coat protein [1]: 33.9 nM
apparent KD of MS2 coat protein [3]: 24.3 nM

UAUCCACAUGAGGAUCACCCAUGUAGGGAAGGAGCGGUGAUUUCACCAGGUAGGUCGCCUUACUGAGGAGAGCCGGUGGAAUCGU [Exclusion - Arginine A (Freestyle 31)]
apparent KD of MS2 coat protein (input ligand: arginine 13.2 mM): 22.3 nM
apparent KD of MS2 coat protein (input ligand: none): 24.9 nM
apparent KD of MS2 coat protein [1]: 31.9 nM
apparent KD of MS2 coat protein [2]: 32.9 nM
apparent KD of MS2 coat protein [3]: 31.6 nM

UAUCCACAUGAGGAUCACCCAUGUUAGGAAGGAGCGGUGAAUGAACCAGGUAGGUCGCCUAGGUGAGGACCAUCUAUGGAUUCGU [Exclusion - Arginine A (Freestyle 12)]
apparent KD of MS2 coat protein (input ligand: arginine 13.2 mM): 12.8 nM
apparent KD of MS2 coat protein (input ligand: none): 13.3 nM
apparent KD of MS2 coat protein [1]: 19.8 nM
apparent KD of MS2 coat protein [2]: 14.6 nM
apparent KD of MS2 coat protein [3]: 13.1 nM

UAUCGUCAGACGGCCGCCACUAGAACAUGAGGAUCACCCAUGUACCCGGUCCAUUCCUCAUUAACUAGGACCGGGUCUGACGAAU [(Trp1)-(Ms2)-(T)'-(M)'-(Trp2)_Design13]
apparent KD of MS2 coat protein (input ligand: arginine 13.2 mM): 88.3 nM
apparent KD of MS2 coat protein [1]: 129 nM
apparent KD of MS2 coat protein [2]: 131 nM

UAUCGUCAGACGGCCGCCACUAGAACAUGAGGAUCACCCAUGUACGGCCGCCCGGUGUGAUCCACUAGGACCGGGUCUGACGAAU [(Trp1)-(Ms2)-(T)'-(M)'-(Trp2)_Design23]
apparent KD of MS2 coat protein (input ligand: arginine 13.2 mM): 39.3 nM
apparent KD of MS2 coat protein (input ligand: none): 66.8 nM
apparent KD of MS2 coat protein [1]: 77.9 nM
apparent KD of MS2 coat protein [2]: 95.7 nM
apparent KD of MS2 coat protein [3]: 53.8 nM

UAUCUUGCGGGCGCCCGCAAGGUUGCGGAUACCAGCGAGAUAAAUCGCCCUUGGCAGCCGAACAUGAGGAUCACCCAUGUCGGAC [Same State - Theophylline A Attempt #1 (HarryS)]
apparent KD of MS2 coat protein (input ligand: arginine 13.2 mM): 7.94 nM
apparent KD of MS2 coat protein [1]: 11.8 nM
apparent KD of MS2 coat protein [3]: 9.87 nM

UAUGCACAUGAGGAUCACCCAUGUAUGGAAGGAGCGGUGAAUAAACCAGGUAGGUCGCCAUUGUGAGGGUCAUCUAUGUAAUCGU [Exclusion - Arginine A (Freestyle 4)]
apparent KD of MS2 coat protein (input ligand: arginine 13.2 mM): 58.6 nM
apparent KD of MS2 coat protein (input ligand: none): 85.3 nM
apparent KD of MS2 coat protein [1]: 125 nM
apparent KD of MS2 coat protein [2]: 133 nM
apparent KD of MS2 coat protein [3]: 91.8 nM

UAUUAUAACCGAAGGAGCGGGAAAGAUGAUUUUUAAUAUUAACAUGAGGAUCACCCAUGUACCCAGGUAGGUCGCGGAUAUUAUU [Default title]
apparent KD of MS2 coat protein (input ligand: arginine 13.2 mM): 23.8 nM
apparent KD of MS2 coat protein (input ligand: none): 19.5 nM
apparent KD of MS2 coat protein [1]: 23.4 nM
apparent KD of MS2 coat protein [2]: 20.7 nM
apparent KD of MS2 coat protein [3]: 19 nM

UAUUUUGUGAUGGAUACCAGCAGAGAAAACGUUUAUCCUAACAUGAGGAUCACCCAUGUAUGCCCUUGGCAGCUGUUGUGGGAUA [8.Q]
apparent KD of MS2 coat protein (input ligand: arginine 13.2 mM): 24.9 nM
apparent KD of MS2 coat protein [1]: 42 nM
apparent KD of MS2 coat protein [3]: 29.9 nM

UCACAUGAGGAUCACCCAUGUACAGGCGAUACCAGCCGUACAUUGGGCCCUUGGCAGCGCACCGAGACCUUUUAAAGCACUUCGG [Er]
apparent KD of MS2 coat protein (input ligand: arginine 13.2 mM): 33.5 nM
apparent KD of MS2 coat protein [1]: 103 nM
apparent KD of MS2 coat protein [3]: 34.7 nM

UCACGACGCAACGUGAGAUAAUGAACAGAAGGAGCGAGGAGAGCCUCAGGUAGGUCGCUGACAUGAGGAUCACCCAUGUAUUACA [Same State Arginine A GF6]
apparent KD of MS2 coat protein (input ligand: arginine 13.2 mM): 63.8 nM
apparent KD of MS2 coat protein (input ligand: none): 82.8 nM
apparent KD of MS2 coat protein [1]: 84.2 nM
apparent KD of MS2 coat protein [2]: 80 nM
apparent KD of MS2 coat protein [3]: 65.2 nM

UCAGUGCAAGGAAGGAGCGGGUACAUGAGGAUCACCCAUGUGCAAGUGGUGAGUGUUCGUGCCCAGGUAGGUCGCCUAGCCUGGU [XArg-B19]
apparent KD of MS2 coat protein (input ligand: arginine 13.2 mM): 36.4 nM
apparent KD of MS2 coat protein (input ligand: none): 192 nM
apparent KD of MS2 coat protein [1]: 122 nM
apparent KD of MS2 coat protein [2]: 348 nM
apparent KD of MS2 coat protein [3]: 54.5 nM

UCAUAAGUACCGGUCCUCAGAUCCUCAUGACGAGGACCGGUACGGCCGCCACUCGAAACAUGAGGAUCACCCAUGUAAUAAUAUU [Brourdmod11]
apparent KD of MS2 coat protein (input ligand: arginine 13.2 mM): 19.5 nM
apparent KD of MS2 coat protein [1]: 28.5 nM
apparent KD of MS2 coat protein [2]: 27.3 nM

UCAUGCAGGUCGGCCGCCACUACACACAUGAGGAUCACCCAUGUAGUUACUGGGUGAAGUGGCAGUAGGACCGGGACCUGCAUAC [Brourdmod09]
apparent KD of MS2 coat protein (input ligand: arginine 13.2 mM): 89.1 nM
apparent KD of MS2 coat protein (input ligand: none): 591 nM
apparent KD of MS2 coat protein [1]: 604 nM
apparent KD of MS2 coat protein [2]: 342 nM
apparent KD of MS2 coat protein [3]: 78 nM

UCAUUUGAGUGAGAUGUAAGGUAUCAUGAUACCAGUAGAUAAUUAUACCCUUGGCAGCAUAACAUGAGGAUCACCCAUGUACAUG [Ac]
apparent KD of MS2 coat protein (input ligand: arginine 13.2 mM): 20.1 nM
apparent KD of MS2 coat protein [1]: 27 nM
apparent KD of MS2 coat protein [3]: 19.6 nM
